Molecular target: the molecule itself
Assay: crystal structure

B1: Xrcc4-MyH7-1590-1657 (domain or fragment, human)
chain: GGSGERKISRIHLVSEPSITHFLQVSWEKTLESGFVITLTDGHSAWTGTVSESEISQEADDMAMEKGKYVGELRKALLSGAGPADVYTFNFSKESCYFFFEKNLKDVSFRLGSFNLEKVENPAEVIRELICYCLDTTAENQAKNEHHLRVVDSLQTSLDAETRSRNEALRVKKKMEGDLNEMEIQLSHANRMAAEAQKQVKSLQSLLKDTQIQL
modifications: reductively methylated
Does B1 bind?
Result: binds

Reference: article PMC4715562 (Proteins, 2015)
